Entries after “also recorded” stand apart in the source; their conditions may differ.
Assays:
[1] = biological target: T1, VAP-1 (Homo sapiens, UniProt Q16853); conditions: computer docking simulations, literature; cited from earlier work
T1 sequence (Q16853 1-763): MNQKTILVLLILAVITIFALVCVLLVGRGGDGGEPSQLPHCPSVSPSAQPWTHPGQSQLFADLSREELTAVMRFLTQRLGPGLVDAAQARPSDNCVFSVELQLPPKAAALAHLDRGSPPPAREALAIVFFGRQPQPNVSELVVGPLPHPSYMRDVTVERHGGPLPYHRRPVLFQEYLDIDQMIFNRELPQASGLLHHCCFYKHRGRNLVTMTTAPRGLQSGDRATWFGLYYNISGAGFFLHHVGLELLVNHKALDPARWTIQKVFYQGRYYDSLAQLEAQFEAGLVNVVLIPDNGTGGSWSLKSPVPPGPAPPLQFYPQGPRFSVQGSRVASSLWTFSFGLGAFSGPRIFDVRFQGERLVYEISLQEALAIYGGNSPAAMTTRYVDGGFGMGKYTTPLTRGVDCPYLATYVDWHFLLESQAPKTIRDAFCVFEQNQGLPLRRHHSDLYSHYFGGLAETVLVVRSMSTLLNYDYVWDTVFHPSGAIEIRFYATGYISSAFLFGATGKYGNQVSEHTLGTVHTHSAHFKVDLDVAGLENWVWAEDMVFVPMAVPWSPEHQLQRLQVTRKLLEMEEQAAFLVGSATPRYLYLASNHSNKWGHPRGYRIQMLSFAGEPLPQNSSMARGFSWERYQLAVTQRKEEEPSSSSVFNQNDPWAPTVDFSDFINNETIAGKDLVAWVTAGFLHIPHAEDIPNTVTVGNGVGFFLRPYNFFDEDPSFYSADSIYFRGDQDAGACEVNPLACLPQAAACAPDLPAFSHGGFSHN

[2] = biological target: T1, VAP-1; assay: Fluorometric detection of SSAO-mediated H2O2 formation (Amplex Red) with VAP-1 transfected CHO cells; type: biochemical; set-up: The CHO cells stably transfected with the cDNA encoding VAP-1 was used; expressed in transfected cells; host or cells: CHO cells, stably transfected; conditions: for inhibition of the activity (VAP-1 SSAO): methylamine substrate
Experimental: Cells. The CHO cells stably transfected with the cDNA encoding VAP-1 was used. The VAP-1 expression level of these cells was confirmed by staining with anti-VAP-1 monoclonal antibodies and subsequent flow cytometric analyses. The VAP-1 transfectants were grown into the confluence, detached, counted and equal numbers were divided to 96 well plates for enzymatic assays.
Fluorometric detection of SSAO-mediated H2O2 formation. Amine oxidase activities were measured using a highly sensitive and stable probe for H2O2 Amplex Red reagent (Molecular Probes Europe BV) as described previously (Salmi et al., 2001). The enzymes were incubated in white microplates in the final volume of 200 μl KRPG containing various concentrations of the tested peptides, 0.8 U/ml horseradish peroxidase, 60 μM Amplex Red reagent, and methylamine as preferred amine substrate for SSAO. Fluorescence intensity of the samples was measured using Tecan ULTRA fluoropolarometer (excitation/emission wavelengths 545/595 nm). To evaluate the amount of H2O2 formed via SSAO-mediated reaction, specific enzyme inhibitor semicarbazide (200 μM) was included in the control well, and these values were subtracted from the total amount of H2O2 formed. To test whether the peptides could interfere with fluorometric H2O2 detection, H2O2 concentrations were calculated from calibration curves generated by serial dilutions of standard H2O2 in the presence of various concentrations of peptides. All calibration curves show linear dependence of the measured fluorescence intensity vs. H2O2 concentration in the presence of peptides in concentrations less than 250 micrograms/ml.

[3] = peptide concentration 10 micrograms/ml
[4] = peptide concentration 100 micrograms/ml

inhibition of the activity (VAP-1 SSAO) [2, 3] [%] | inhibition of the activity (VAP-1 SSAO) [2, 4] [%] | Substance | binding to the active site of VAP-1 in docking [1] | VAP-1 inhibiting activity compared with earlier lysine containing peptides ([2]; comparison in words)
 |  | GGGKGGG (VAP-1 targeting peptide) [previously disclosed lysine containing peptide] | bind optimally | 
 |  | GGGKKGG (VAP-1 targeting peptide) [previously disclosed lysine containing peptide] | bind optimally | 
33.5 | 42.8 | GGGGKYGGG (VAP-1 targeting peptide) |  | stronger than that of the previously disclosed lysine containing peptides; also recorded: more potent inhibitor of VAP-1 than GGGGKGGGG
17.4 | 20.3 | GGGGKGGGG (VAP-1 targeting peptide) | bind optimally | 
 |  | GGGKEGG (VAP-1 targeting peptide) [previously disclosed lysine containing peptide] | bind optimally | 

Source: patent US20080213176A1, “Compositions for Targeting Amine Oxidases in Vivo” (priority 2005, published 2008)
